In data set [1] the target is T1, Aβ (10-35) formed into amyloid fibrils (nucleus) (Homo sapiens, UniProt P05067).
T1 construct: peptide [Aβ (10-35)] consisting of 10 to 35 residues of amyloid β peptide; made in house; host or cells: chemical synthesis (Fmoc solid phase method)
Put plainly: Amplification, with the artificial peptide, of formation of fibrils of Aβ (10-35) formed into fibrils, monitored with ThT. Particulars: peptide 200 μM, Aβ (10-35) nucleus 10 μM, room temperature; for increase in ThT fluorescent intensity in the presence of the nucleus: after 1 day. The data set is classed as biochemical. On the procedure:
The amplification of formation of fibrils of Aβ (10-35) formed into amyloid fibrils was attempted by using each of the artificial peptides synthesized in Example 1. A small amount of Aβ (10-35) previously formed into fibrils under the condition in (1-2) above was added to a solution of the artificial peptide, and the amplification of formation of fibrils was monitored with ThT.
Starting solution used: [peptide]=2 mM solution in TFE
Concentrations: [peptide]=200 μM, [Aβ (10-35) (nucleus)]=10 μM • (20 mM Tris-HCl buffer (pH 7.4))
(§1) Aβ (10-35) (nucleus) was homogenized by sonication for 1 hour before dilution.
Temperature: room temperature
Concentration: [peptide]=5 μM, [ThT]=6 μM • (20 mM Tris-HCl buffer (pH 7.4))
Stirring conditions: The whole volume of the reaction mixture was sufficiently stirred with a Pasteur pipette before sampling, and then sufficiently stirred in a cell with a Pasteur pipette.
Excitation wavelength: 440 nm, detection wavelength: 482 nm.

Data set [2] can be described thus: Measurement of the secondary structure of each peptide by a CD spectrum. Conditions: peptide 100 μM, 20 mM Tris-HCl buffer (pH 7.4); for secondary structure by CD spectrum: CD at 25° C.; for CD spectral change with time: incubated at ordinary temperatures. The data set is classed as physicochemical. On the procedure: The peptide (10-4F), (10-3L), (10-3F), (10-3A), Aβ (14-23) or Aβ (10-35) synthesized in Example 1, which was contained alone in an aqueous solution, was evaluated for its ability to form amyloid fibrils. The secondary structure was examined using a CD spectrum, and the ability to form amyloid fibrils was evaluated with dye thioflavin T (ThT) binding specifically to amyloid fibrils to emit fluorescence, under a transmission electron microscope (TEM).
Solutions of the respective synthesized peptides, 2 mM, in trifluoroethanol (TFE) were prepared and used as stock solutions respectively. Each stock solution was diluted to a final peptide concentration of 100 μM with 20 mM Tris-HCl buffer (pH 7.4), then incubated at ordinary temperatures, and measured for CD spectrum at 25° C. (FIG. 1).

Data set [3] can be described thus: Evaluation, with ThT, of the ability of the artificial peptide used alone to form amyloid fibrils. Conditions: peptide 200 μM alone; for time required to finish formation of fibrils at 40° C. compared with ordinary temperatures: incubation at 40° C.; for time having elapsed until the increase in fluorescent intensity was finished: incubation at room temperature. On the procedure:
The peptide (10-4F), (10-3L), (10-3F), (10-3A), Aβ (14-23) or Aβ (10-35) synthesized in Example 1, which was contained alone in an aqueous solution, was evaluated for its ability to form amyloid fibrils. The secondary structure was examined using a CD spectrum, and the ability to form amyloid fibrils was evaluated with dye thioflavin T (ThT) binding specifically to amyloid fibrils to emit fluorescence, under a transmission electron microscope (TEM). The ability of each artificial peptide obtained in Example 1 to form amyloid fibrils when used alone was evaluated using ThT. Starting solution used: [peptide]=2 mM solution in TFE Concentration: [peptide]=200 μM in 20 mM Tris-HCl buffer (pH 7.4) Temperature: room temperature or 40° C. Concentrations: [peptide]=5 μM, [ThT]=6 μM (20 mM Tris-HCl buffer (pH 7.4)) Temperature: room temperature Stirring conditions: The whole volume of the reaction mixture was sufficiently stirred with a Pasteur pipette before sampling, and then sufficiently stirred in a cell with a Pasteur pipette. Excitation wavelength: 440 nm, detection wavelength: 482 nm. The formation of fibrils was slow at ordinary temperatures to make it difficult to monitor the change with time, so the ability of each artificial peptide used alone to form fibrils was then evaluated at an elevated temperature of 40° C. estimated to accelerate formation of fibrils.

For data set [4], the target named is T1, Aβ (10-35) formed into amyloid fibrils (nucleus). Put plainly: Amplification of fibrils of Aβ (10-35) formed into amyloid fibrils, measurement using a plate reader. Particulars: high to low; for rank of difference in fluorescence intensity between nucleus added and not added (ability to amplify fibrils): after completion of fluorescent intensity change; for rank of increase in fluorescent intensity among peptides to which the nucleus had been added: with Aβ (10-35) nucleus. It is filed as biochemical. On the procedure: A test for the amplification of fibrils of Aβ (10-35) formed into amyloid fibrils by using the artificial peptide of the present invention in Example 2 was attempted using a plate reader.
Starting solution used: [peptide]=5 mM solution in DMSO
Concentrations: [peptide]=20 μM, [Aβ (10-35) (nucleus)]=2.5 μM • (20 mM Tris-HCl buffer (pH 7.4))
as §1
Concentrations: [peptide]=18 μM, [ThT]=25 μM • (20 mM Tris-HCl buffer (pH 7.4))
Stirring conditions: The whole volume of the reaction mixture was stirred 3 times for 2 seconds with a vortex and then (100 μl×2) was stirred with a micropipette in a well before measurement.
Excitation wavelength: 440 nm, detection wavelength: 490 nm.

As for “Ac-Lys-Gln-Lys-Leu-Leu-Leu-Leu-Leu-Glu-Glu-NH2 (Ac-KQKLLLLLEE-NH2) [10-3L]”, in data set [1], the “fluorescent intensity with the nucleus relative to that in the absence of the nucleus” value was “twice as high” and the “increase in ThT fluorescent intensity in the presence of the nucleus” value (“increase in ThT fluorescent intensity” for short) is “significant increase in fluorescent intensity”. In addition, in data set [2], the “secondary structure by CD spectrum” value is “spectra unique to β-sheet structure” and the “CD spectral change with time” value is recorded as “increased signals with time”. Besides, in data set [3], the “time required to finish formation of fibrils at 40° C. compared with ordinary temperatures” value is “significantly shortened” and the “time having elapsed until the increase in fluorescent intensity was finished” value (“time having elapsed until the increase” below) is 3 days. In data set [4], the “rank of difference in fluorescence intensity between nucleus added and not added (ability to amplify fibrils)” value is given as “highest”; the “rank of increase in fluorescent intensity among peptides to which the nucleus had been added” value (from here on “rank of increase”) is “order of 10-4F, 10-3L, 10-3F, and 10-3A”.

As to “Ac-Lys-Gln-Lys-Leu-Leu-Phe-Leu-Leu-Glu-Glu-NH2 (Ac-KQKLLFLLEE-NH2) [10-3F]”, in data set [1], the “increase in ThT fluorescent intensity” value is “no increase in fluorescent intensity”. Moreover, in data set [2], the “secondary structure by CD spectrum” value is on record as “spectra unique to β-sheet structure” and the “CD spectral change with time” value is “increased signals with time”. In addition, in data set [3], the “time required to finish formation of fibrils at 40° C. compared with ordinary temperatures” value is “hardly changed” and the “time having elapsed until the increase” value was “about 6 days”. For the same substance, in data set [4], the “rank of difference in fluorescence intensity between nucleus added and not added (ability to amplify fibrils)” value was “order of 10-3L, 10-4F, 10-3F, and 10-3A”; the “rank of increase” value was “order of 10-4F, 10-3L, 10-3F, and 10-3A”.

In the case of “Ac-Lys-Gln-Lys-Leu-Leu-Ala-Leu-Leu-Glu-Glu-NH2 (Ac-KQKLLALLEE-NH2) [10-3A]”, in data set [1], the “increase in ThT fluorescent intensity” value is “no increase in fluorescent intensity”. In addition, in data set [2], the “secondary structure by CD spectrum” value is recorded as “spectra unique to random coil state” and the “CD spectral change with time” value is reported as “no spectral change with time”. Further, in data set [4], the “rank of difference in fluorescence intensity between nucleus added and not added (ability to amplify fibrils)” value is “order of 10-3L, 10-4F, 10-3F, and 10-3A”; the “rank of increase” value was “order of 10-4F, 10-3L, 10-3F, and 10-3A”.

“Ac-Lys-Gln-Lys-Leu-Leu-Leu-Phe-Leu-Glu-Glu-NH2 (Ac-KQKLLLFLEE-NH2) [10-4F]”: the “increase in ThT fluorescent intensity” value in data set [1] is reported as “significant increase in fluorescent intensity”. Moreover, in data set [2], the “secondary structure by CD spectrum” value is reported as “spectra unique to β-sheet structure” and the “CD spectral change with time” value was “increased signals with time”. For the same substance, in data set [3], the “time required to finish formation of fibrils at 40° C. compared with ordinary temperatures” value is “hardly changed” and the “time having elapsed until the increase” value is reported as “about 6 days”. In data set [4], the “rank of difference in fluorescence intensity between nucleus added and not added (ability to amplify fibrils)” value was “order of 10-3L, 10-4F, 10-3F, and 10-3A”; the “rank of increase” value is recorded as “largest increase in fluorescent intensity”.

With “Aβ (10-35): peptide consisting of 10 to 35 residues of amyloid β peptide, used as the nucleus of amyloid fibril (YEVHHQKLVFFAEDVGSNKGAIIGLM; Amyloid-beta protein 42; UniProt P05067 681-706, looked up, fragment) [reference compound]”, in data set [2], the “secondary structure by CD spectrum” value is reported as “spectra unique to β-sheet structure” and the “CD spectral change with time” value is listed as “increased signals with time”.

Turning to “Aβ (14-23): peptide consisting of 14 to 23 residues of amyloid β peptide (HQKLVFFAED; Amyloid-beta protein 42; UniProt P05067 685-694, looked up, fragment)”, in data set [2], the “secondary structure by CD spectrum” value was “spectra unique to random coil state” and the “CD spectral change with time” value is recorded as “no spectral change with time”. Also, the “time required to finish formation of fibrils at 40° C. compared with ordinary temperatures” value in data set [3] is on record as “significantly shortened”.

(Values after patent publication US20060235199A1, “Reagent for amplifying amyloid fibrosis of amyloid ss-protein” (priority 2003, published 2006).)
